Experimental data reported in patent US10100120B2, “Antibody which specifically binds to human CRTH2” (KYOWA HAKKO KIRIN CO., LTD, priority 2015, dated 2018).

Test system: human eosinophils
Test: Agonist, antagonist and ligand-induced signal enhancing activity using shape change of human eosinophils (Example 21)
Type: cell-based
Conditions: antibody 10 μg/mL, FIG. 18
Method: Eosinophils were separated from human peripheral blood in the same manner as in Example 11. In this case, the step of adding the same amount of physiological saline for injection as the blood to the blood was omitted and the […] on Ficoll-Paque PREMIUM 1.084 (GE Healthcare). The isolated human eosinophils were suspended with D-PBS (−) (NACALAI TESQUE, Inc.) and a reaction was performed in a 5% CO2 incubator at 37° C. for 1 hour and 30 minutes.
Thereafter, the cells were seeded in a 96-well plate at 0.7×10^5 cells/well using 10% FBS-containing RPMI1640. Next, an isotype control antibody, the humanized Lym2 antibody LV0HV1, the anti-human CRTH2 antibody hu19A2 v52, ch8B1, ch3C12, or ch31A5 prepared in Example 9, or the commercially available anti-human CRTH2 antibody BM16 (Santa Cruz Biotechnology), or 301108 (R&D) was added thereto at a final concentration of 10 μg/mL to cause a reaction in a 5% CO2 incubator at 37° C. for 30 minutes. […]
Next, RPMI1640 containing either DKPGD2 (Cayman Chemical) or 10% FBS—was added thereto at a final concentration of 100 nM to cause a reaction in a 5% CO2 incubator at 37° C. for 60 minutes. […] The cells were washed twice with SM, and the shape change of eosinophils was analyzed in the same manner as in Example 19.

B1: LV0HV1: humanized Lym2 antibody, VL LV0 (SEQ ID NO: 33), VH HV1 (SEQ ID NO: 51) (antibody, V domains shown)
VH: EVQLVESGGGVVQPGRSLRLSCAASGFTFSNYYMAWVRQAPGKGLEWVATISYDGSSTYYRDSVKGRFTISRDNAKNSLYLQMNSLRAEDTATYYCARHRGYYYSGAGYFDYWGQGTMVTVSS
VL: DIVMTQTPLSLPVTPGESASISCRSSQSLEYSDGYTYLEWYLQKPGQSPQVLIYGVSNRFSGVPDRFSGSGSGTDFTLKISRVEAEDVGVYYCFQATHDPLTFGQGTKLEIK
- effect on shape change of eosinophils induced by DKPGD2 (DKPGD2 100 nM): do not affect shape change
- shape change of eosinophils in the absence of a ligand (agonist activity) (no DKPGD2): do not affect shape change
